# Where a chain is given by its changes, count along the chain named. In names and notes the source's numbering stands.
# B1: Antibody C (antibody, human IgG2, kappa)
# heavy: EVQLVESGGGLVQPGGSLRLSCAASGFTFSSYGMSWVRQAPGKGLELVSTINSNGGRTYYPDSVKGRFTISRDNSKNTLYLQMGSLRAEDMAVYYCARDQGFAYWGQGTLVTVSSASTKGPSVFPLAPCSRSTSESTAALGCLVKDYFPEPVTVSWNSGALTSGVHTFPAVLQSSGLYSLSSVVTVPSSNFGTQTYTCNVDHKPSNTKVDKTVERKCCVECPPCPAPPAAAPSVFLFPPKPKDTLMISRTPEVTCVVVDVSHEDPEVQFNWYVDGVEVHNAKTKPREEQFNSTFRVVSVLTVVHQDWLNGKEYKCKVSNKGLPAPIEKTISKTKGQPREPQVYTLPPSREEMTKNQVSLTCLVKGFYPSDIAVEWESNGQPENNYKTTPPMLDSDGSFFLYSKLTVDKSRWQQGNVFSCSVMHEALHNHYTQKSLSLSPG
# light: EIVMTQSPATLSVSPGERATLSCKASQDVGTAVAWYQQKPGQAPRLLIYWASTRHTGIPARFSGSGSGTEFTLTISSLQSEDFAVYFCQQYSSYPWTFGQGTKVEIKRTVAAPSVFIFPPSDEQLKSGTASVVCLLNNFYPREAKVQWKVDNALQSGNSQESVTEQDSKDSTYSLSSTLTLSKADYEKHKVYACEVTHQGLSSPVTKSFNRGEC
# notes: Humanized IgG2 (V234A, G237A)/κ; also called HK2L4 (Lys-); HK2L4(Lys-)
# B2: Antibody G (antibody, human IgG2, kappa)
# heavy: B1 heavy with S49A, R87K
# light: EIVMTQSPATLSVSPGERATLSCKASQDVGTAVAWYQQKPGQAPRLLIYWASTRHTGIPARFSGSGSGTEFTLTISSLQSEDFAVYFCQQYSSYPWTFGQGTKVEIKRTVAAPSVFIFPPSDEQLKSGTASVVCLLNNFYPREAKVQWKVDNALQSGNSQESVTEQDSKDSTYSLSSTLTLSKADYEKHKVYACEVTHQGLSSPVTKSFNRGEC
# notes: Humanized IgG2 (V234A, G237A)/κ; also called HK3L4 (Lys-); HK3L4(Lys-)
# B3: Antibody D (antibody, human IgG2, kappa)
# heavy: B1 heavy with S49A, R87K
# light: DIQMTQSPSSLSASVGDRVTITCKASQDVGTAVAWYQQKPGKSPKLLIYWASTRHTGVPSRFSGSGSGTDFTLTISSLQPEDVATYFCQQYSSYPWTFGQGTKVEIKRTVAAPSVFIFPPSDEQLKSGTASVVCLLNNFYPREAKVQWKVDNALQSGNSQESVTEQDSKDSTYSLSSTLTLSKADYEKHKVYACEVTHQGLSSPVTKSFNRGEC
# notes: Humanized IgG2 (V234A, G237A)/κ; also called HK3L5 (Lys-); HK3L5(Lys-)
# B4: Antibody F (antibody, human IgG2, kappa)
# heavy: B1 heavy with P61A, D62N
# light: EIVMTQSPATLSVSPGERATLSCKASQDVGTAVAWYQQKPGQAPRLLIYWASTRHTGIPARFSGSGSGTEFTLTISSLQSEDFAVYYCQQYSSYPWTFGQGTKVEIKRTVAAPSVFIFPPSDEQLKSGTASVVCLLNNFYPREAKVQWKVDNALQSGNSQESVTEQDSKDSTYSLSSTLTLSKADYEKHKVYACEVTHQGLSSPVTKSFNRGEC
# notes: Humanized IgG2 (V234A, G237A)/κ; also called HA2L3 (Lys-); HA2L3(Lys-)
# B5: Antibody A (antibody, human IgG2, kappa)
# heavy: B1 heavy
# light: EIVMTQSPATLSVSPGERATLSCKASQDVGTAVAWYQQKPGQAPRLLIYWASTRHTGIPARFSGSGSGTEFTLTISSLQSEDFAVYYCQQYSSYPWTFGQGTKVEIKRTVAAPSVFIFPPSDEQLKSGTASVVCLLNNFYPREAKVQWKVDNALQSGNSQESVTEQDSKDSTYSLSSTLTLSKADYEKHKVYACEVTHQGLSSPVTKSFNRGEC
# notes: Humanized IgG2 (V234A, G237A)/κ; also called HK2L3 (Lys-); HK2L3(Lys-)
# B6: Antibody E (antibody, human IgG2, kappa, V domains shown)
# VH: EVQLVESGGGLVQPGGSLRLSCAASGFTFSSYGMSWVRQAPGKGLELVSTINSNGGRTYYPDSVKGRFTISRDNSKNTLYLQMGSLRAEDMAVYYCARDQGFAYWGQGTLVTVSS
# VL: EIVMTQSPATLSVSPGERATLSCKASQDVGTAVAWYQQKPGQSPRLLIYWASTRHTGIPARFSGSGSGTEFTLTISSLQSEDFAVYFCQQYSSYPWTFGQGTKVEIKR
# notes: Humanized IgG2 (V234A, G237A)/κ; also called HK2L6 (Lys-); HK2L6(Lys-)
# B7: Mouse anti-human Notch4 monoclonal antibody 6-3-A6 (antibody, V domains shown)
# VH: EVQLVESGGGLVQPGGSLKLSCAASGFTFSSYGMSWVRQTPDKRLELVATINSNGGRTYYPDSVKGRFTISRDNAKNTLYLQMSSLKSEDTAMYYCARDQGFAYWGQGTLVTVSA
# VL: DIVMTQSHKFMSTSVGDRVSITCKASQDVGTAVAWYQQKPGQSPKLLIYWASTRHTGVPDRFTGSGSGTDFTLTISNVQSEDLADYFCQQYSSYPWTFGGGTKLEIK
# notes: Mouse hybridoma antibody; cloned with primers for mouse IgG1 heavy chain and mouse Igκ light chain; also called Original
# Experiments:
# [1] = biological target: Notch4 with a part of the intracellular domain substituted with GAL4 DNA binding domain, on b.end3 reporter …; assay: cell-based or functional assay
# [2] = biological target: T1, Human Notch4-NRR domain Fc fusion protein (human, UniProt Q99466 1046-1445, limits assumed); assay: SPR (Biacore) as for Table 30; Notch4-NRR-Fc captured, antibody injected; averaged, N=5
# T1 construct: Expressed in a CHO cell line, used from culture supernatant; 1 is named; also called Human Notch4-NRR Fusion Protein; not shown: Fc
# T1 sequence: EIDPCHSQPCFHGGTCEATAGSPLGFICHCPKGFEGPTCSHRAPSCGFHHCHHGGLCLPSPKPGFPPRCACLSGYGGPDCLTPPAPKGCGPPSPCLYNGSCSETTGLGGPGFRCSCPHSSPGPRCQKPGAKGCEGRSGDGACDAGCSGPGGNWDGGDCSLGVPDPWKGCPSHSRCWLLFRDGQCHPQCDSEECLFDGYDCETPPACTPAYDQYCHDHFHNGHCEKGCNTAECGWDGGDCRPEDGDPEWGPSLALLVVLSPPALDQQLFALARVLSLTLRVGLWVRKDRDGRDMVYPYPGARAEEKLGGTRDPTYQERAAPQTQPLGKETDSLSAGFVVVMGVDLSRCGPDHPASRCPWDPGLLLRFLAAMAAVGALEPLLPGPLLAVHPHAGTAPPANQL
# Description: (§1) Kinetic analysis of further anti-Notch4 inhibitory humanized antibodies was carried out as follows. Human Notch4-NRR domain Fc fusion proteins were expressed with a CHO cell line. The antigen in the culture supernatant was captured by the anti-human Notch4 antibody fixed on a CM5 sensor chip that recognizes different epitopes of human Notch4. The humanized anti-human Notch4 antibody was then injected onto the sensor chip at various concentrations. The interaction and disassociation constants thereof were calculated according to manufacturer's instructions.
# [3] = biological target: T1, Human Notch4-NRR domain Fc fusion …; assay: SPR (Biacore); Notch4-NRR-Fc captured by another anti-Notch4 antibody on CM5, antibody injected
# Description: as §1
# [4] = biological target: T1, Human Notch4-NRR domain Fc fusion …; assay: SPR (Biacore) as for Table 30; Notch4-NRR-Fc captured, antibody injected; averaged, N=2
# Description: as §1
# [5] = biological target: T1, Human Notch4-NRR domain Fc fusion …; assay: SPR (Biacore) as for Table 30; Notch4-NRR-Fc captured, antibody injected; averaged, N=3
# Description: as §1
# [6] = biological target: T1, Human Notch4-NRR domain Fc fusion …; assay: SPR (Biacore) as for Table 30; Notch4-NRR-Fc captured, antibody injected; averaged, N=9
# Description: as §1
binder,measurement,setting,value
B1,"% of Control (relative luminescence), Notch4-GAL4 luciferase reporter assay, antibody at 10 µg/ml",[1],-9.9 % of Control
same,Kd,[2],0.715 nM
same,koff,[2],0.00127 s⁻¹
same,kon,[2],1.81e+06 M⁻¹ s⁻¹
same,Kd,[3],0.556 nM
same,koff,[3],0.00106 s⁻¹
same,kon,[3],1.91e+06 M⁻¹ s⁻¹
B2,"% of Control (relative luminescence), Notch4-GAL4 luciferase reporter assay, antibody at 10 µg/ml",[1],13 % of Control
same,Kd,[2],0.76 nM
same,koff,[2],0.00124 s⁻¹
same,kon,[2],1.86e+06 M⁻¹ s⁻¹
same,Kd,[3],0.633 nM
same,koff,[3],0.00111 s⁻¹
same,kon,[3],1.78e+06 M⁻¹ s⁻¹
B3,"% of Control (relative luminescence), Notch4-GAL4 luciferase reporter assay, antibody at 10 µg/ml",[1],21 % of Control
same,Kd,[2],0.529 nM
same,koff,[2],0.00109 s⁻¹
same,kon,[2],2.1e+06 M⁻¹ s⁻¹
same,Kd,[3],0.475 nM
same,koff,[3],0.000863 s⁻¹
same,kon,[3],1.82e+06 M⁻¹ s⁻¹
B4,"% of Control (relative luminescence), Notch4-GAL4 luciferase reporter assay, antibody at 10 µg/ml",[1],17 % of Control
same,Kd,[4],0.434 nM
same,koff,[4],0.000894 s⁻¹
same,kon,[4],3.5e+06 M⁻¹ s⁻¹
same,Kd,[3],0.982 nM
same,koff,[3],0.00136 s⁻¹
same,kon,[3],1.55e+06 M⁻¹ s⁻¹
B5,"% of Control (relative luminescence), Notch4-GAL4 luciferase reporter assay, antibody at 10 µg/ml",[1],0.1 % of Control
same,Kd,[4],0.395 nM
same,koff,[4],0.00124 s⁻¹
same,kon,[4],5.05e+06 M⁻¹ s⁻¹
same,Kd,[3],0.555 nM
same,koff,[3],0.000889 s⁻¹
same,kon,[3],1.62e+06 M⁻¹ s⁻¹
B6,"% of Control (relative luminescence), Notch4-GAL4 luciferase reporter assay, antibody at 10 µg/ml",[1],5 % of Control
same,Kd,[5],0.62 nM
same,koff,[5],0.00115 s⁻¹
same,kon,[5],1.87e+06 M⁻¹ s⁻¹
same,Kd,[3],0.519 nM
same,koff,[3],0.00115 s⁻¹
same,kon,[3],2.23e+06 M⁻¹ s⁻¹
B7,Kd,[6],0.321 nM
same,koff,[6],0.000742 s⁻¹
same,kon,[6],2.35e+06 M⁻¹ s⁻¹

# Source: patent US20170096493A1 (EISAI R AND D MANAGEMENT, published 2017)
